Biological target: T1, Mcx1^Y174A-3xFLAG (pore-1 loop Y174A), purified recombinant (S. cerevisiae, UniProt P38323 14-520, Y174A)
T1 sequence (looked up): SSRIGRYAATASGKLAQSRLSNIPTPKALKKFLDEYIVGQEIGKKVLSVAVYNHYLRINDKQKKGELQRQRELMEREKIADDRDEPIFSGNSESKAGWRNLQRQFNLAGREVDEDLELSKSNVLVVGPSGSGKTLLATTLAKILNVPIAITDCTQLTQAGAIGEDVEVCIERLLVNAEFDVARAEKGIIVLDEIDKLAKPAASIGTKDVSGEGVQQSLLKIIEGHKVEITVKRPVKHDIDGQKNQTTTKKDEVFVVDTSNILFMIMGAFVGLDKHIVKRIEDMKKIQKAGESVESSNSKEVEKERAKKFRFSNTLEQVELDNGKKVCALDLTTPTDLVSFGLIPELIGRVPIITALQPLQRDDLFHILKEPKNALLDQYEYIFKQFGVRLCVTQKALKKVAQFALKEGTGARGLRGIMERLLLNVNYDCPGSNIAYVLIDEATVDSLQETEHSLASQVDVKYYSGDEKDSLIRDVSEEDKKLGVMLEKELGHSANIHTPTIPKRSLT
Assay: co-IP

B1: apoHem1 (PLP-free Hem1, yeast ALA synthase), purified recombinant (enzyme)
chain: not shown
**Q.** How did the “fold amount bound relative to holoHem1” value turn out when B1 was run?
**A.** ~10 fold
